Data published in the RNAGym collection of RNA variant scans (doi:10.1073/pnas.2313332121).

B1: TPR t1 (parent)
chain: GACCAAUCUGCCCUCAGAGCUCGAGAACAUCUUCGGAUGCAGAGGAGGCAGGCUUCGGUGGCGCGAUAGCGCCAACGUCCUCAACCUCCAAUGCAUCCCACCACAUGAUGAUGCCUGAAGAGCCUUGGUUUUUUG

Variants of: B1
Test: polymerase ribozyme fitness, log enrichment relative to wild type (log ratio); higher = more active; in vitro selection for triplet polymerase activity
Summary of the method: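 Fitness measures genotype enrichment against wild-type enrichment on a logarithmic scale, with inverse-variance-weighted averaging of replicates. The logarithm is base 2, and genotypes were kept only with ≥10 input reads and ≥1 read per output in Illumina sequencing. The sequenced libraries came from one triplicate in vitro selection round, including frozen incubation at −7 °C, of PCR-built, transcribed mutant libraries of each subunit of a heterodimeric triplet polymerase ribozyme.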

Variant | polymerase ribozyme fitness (log ratio)
C8G A16C C62A G71A G120C | -1.27
C56U A91C | -1.17
G17U G63A U112A U125G | -3.29
U92A C94U | -3.3
C76U C88A U133G | -0.912
C56A G69A G117U | -6.41
C97U G120A | 0.391
U78C G113C | -1.53
G107U | -4.78
C12U C72A C85A C94G A111C A119G U125A U133G | -4.02
C3G G61U C94A A95C C124A U132C U133C | -3.25
C82G C114A | -3.29
G93U G110A G120U | -4.68
C34A U78A | -3.26
G77A C86U U112A | 1.14
G48U A91U C104A | -5.89
C53G U112G C114A G135U | -5.63
U112G A121U | 0.924
U59A U92C | -1.76
C70U C102G | -6.87
C13G A118U | -1.02
G23U G61U C86A A100U C114U G117U | -7.47
A27U G60C | -3.62
G17U G71U U81C C89G A119G G128A | -4.58

Variant | polymerase ribozyme fitness (log ratio)
A75G G93C U116A | -4.1
C73A C79G U112A | -0.66
C3U C11U U54G | -1.05
C22A U67C C80A U96A U109A | -6.8
U9A C70U C88A C101U U132A | -0.202
U9C C12A | 0.347
C40U G63C C80U | -1.53
C49G A83G | 0.789
A37U U59A | -0.609
G58A | 0.0445
A91U G110C A121U | -5.81
G45A G71C C101A C115U G127C | -5.44
A46U U87A | -0.324
U32C G113U C123U | -3.78
C11A U96A | -2.53
C13U G48U G110C | -4.34
C8G C11U C40U G61C A90G C97U U129G | -3.08
C12A A27G G71U G93A | -6.11
C89U C101U | -1.33
C13G A43U A84G A121C U131G | -1.74
C13A C40A G52A C56U | -2.98
U21G C34A C49U C102G C114A | -8.62
C11G C80U C101A | -0.977
G36A G63U C85G | -2.03

Variant | polymerase ribozyme fitness (log ratio)
G19C G120A | -1.56
C70U C86A | -1.13
C62G U116A | -4.13
G10C G52C G77U A121U | 0.617
G93A A118G G135U | -1.11
C28U G120U | -1.78
C3A G110C | -5.4
G47U C86G | -0.954
G57U U87G | 0.0269
A6U U131A | 0.0258
C20A C62G C115U G122U | -6.79
U54A C70U C88G C89U C115A | -0.838
U21A A29G A43U C56G A83C A91C G120U | -5.54
G17C A83G U116G | -5.65
G60A A105G G120U U133G G135U | -3.99
U7G G48A C70A C101A | -2.19
U21A U38G C56A U78C | -1.08
G71U G93U C104U A119G | 0.516
C4G C13U C20G A27U G71U U106A U125G | -5.01
C49A G69A U106A | -2.86
C20U C56U G63C C94A G120C | -3.97
G19U C115G U130G | -5.08
G47U G113C | -2.7
G58C | 0.031

Variant | polymerase ribozyme fitness (log ratio)
A27U A37C | -2.87
G93C C98U A121U | 1.01
C4A C12A C13A A18U G44A G51A U59A U87A G110C G120A U126G | -7.29
C4G C80A | -3.83
U21C A121C | 1.32
G60C G61C U81G C115U | -5.37
G57A U81C G93C G120A | -1.39
U7G G42C G71A C89G | -2.37
C34A A50U G71C C123G | -4.86
G61U U87C C99U C115G | -4.63
A27G C28G | -4.25
C11A C13G G36U | -2.87
C12U G44U U55C | -0.924
C20A A111G | -3.92
G10U C15G G61A | -1.63
C64U G113C | -0.91
C88A A111C | 0.245
G52A A84U U131G | -0.974
C49A G110C U112A | -5.99
U7A C53A | -0.0334
U14A G57C G58A G61A C89U G127U U129C U130C | -6.54
C11G G122A C124G | 1.83
A41U C73G | -3.06
C11G A24G C40U G120U U132G | -2.9

Variant | polymerase ribozyme fitness (log ratio)
C8U G48A | -0.239
C64U C89G | -1.73
C8G C11U A121C U130A | 1.01
C53A C79A C104A U106A U132C | -3.18
U21A U59C C123A G128C | -2.93
G63U U78C | -2.92
C3G A16U C40U C73A | -4.45
G63A G71C | -3.85
A103C C123A | -5.15
G17U G42A | -3.86
C8A G69U C99A G120A G122A | -1.73
G35A C53G C62U G77C A84C | -4.08
G61A U81G | -3.89
G42A U130C U133A | -1.86
G61U U116C U130G | -0.407
C49A G61A G110U U125C | -2.14
G69C U112A | -0.545
G77C U96C G117A | -2.46
G48A C53G U55C C56A | -0.815
C13G G47U C73U C114A | -4.1
A6U A75U C82A C115A U125A G128C | -3.75
C15A G52A G60A U112C U116C | -3.35
A5U A37C G113U | -3.79
G44A G48C C102U C124A | -1.74

Variant | polymerase ribozyme fitness (log ratio)
G47A C123G | 0.634
A18G C22G A27U G117C | -4.21
C104U U106C G120U | -0.245
C64U C72U A83G U133G | -1.1
A18G C56U | -2.25
G42U U54G A68G | -5.22
C88A U96C G110C U132C | -4.37
C13A C70G | -3.31
C28G C53A | -1.99
C49U C86U C88G C115G | -4.09
C22G G52A G63U U81G G110A | -7.15
G93C A100C U130A | -2.66
A6G G69U C115A G120A | 0.502
U126G U129A | -2.97
G47U | -1.72
C13A U14C A16C C115A A119G | -2
C102A U109C | -6.22
A27C A29U C56U U106A G122A C123G | -1.35
G117C C124U | -3.55
C49A G60A | -0.214
U7C C12G G44A U92A C102A C123U | -7.32
G63U U133A | -2.29
C13U A46U U54G A95U C123U | 1.11
U30C C64G C99G C123G | -7.65

Variant | polymerase ribozyme fitness (log ratio)
G17A A84C U87A U96G | -4.16
C101A C115G | -2.5
C56U A121G | 1.94
C8G G47A | -0.0438
G71C G110C U126C | -7.04
A121C U130A | 0.644
C11G C88A C102A | -1.55
G35C U106C G117A | -5.76
U9A G51C C86G U87A | -5.3
U33G C49G C53G G61U | -7.57
G47U C85U C97A C124G | -4.97
A2G C4A U7C G47C C56A A68G C99A G110U C115G G117C U129A | -7.47
G48C C56G C62U U78C | -1.82
A83G G120U | -0.6
C62G U126C | -2.05
G52A G63A C73U U81C C114A | -7.55
C11U G25U | -5.82
G17U U96G C98A G113U | -6.9
C8G G128C | -0.73
C31U C89G | -5.1
C13G G47U G77U | -3.79
C12G U55A C56G G63A U81C | -2.01
G10A A18U C70G G77A U87A C115A | -7.14
